Experiment: yeast display, Sf9 membrane polyspecificity reagent, FACS + sequencing; frameworks hold sequencing errors
Summary of the method: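 In a synthetic yeast display library (Saccharomyces cerevisiae BJ5465), nanobody expression was induced with galactose for 36–48 hours. FACS gates were set low and high (top ~1%) using anti-HA fluorescence for expression and streptavidin fluorescence for binding of the Sf9 membrane reagent. Each polyreactivity label is drawn from the gate of origin.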
For “QVQLVESVGGLDQAGGSLRLRCAASGFIVGYYAMGWYRQAPGKEWEFVAAISWTGGNTYYADSVKGRFTISRDNAKNTVSLQLNSLKPEDTAVYYCNVVVSGYADRDGYNYWGQRTQVTVSS”, the “polyreactivity (PSR sort gate)” value was “high polyreactivity”. In the case of “QVQLVESVGGLDQAGGSLRLSCAASGRIFRQNAMGWYRQAPGKERELVAAISRSGGSTYYADSVKGRFTISRDNAKNTVYLQMNSLKPEDTAVYYCNRDYQSQRTYPRRYDYCGQGTQVTVSS”, the “polyreactivity (PSR sort gate)” value is reported as “low polyreactivity”. In the case of “QVQLVESVGGLDQAGGSLRLSCAASGRTFYRNAMGLYRQAPGKERELVSAITGSGGSTYYADSVKGRFTISRDNAKNTVYLQMNSLKPEDTAVYYCAAGTRIYNSLIGFDYWGQGTQVTVSS”, the “polyreactivity (PSR sort gate)” value is reported as “high polyreactivity”. With “QVQLVESVGGLVEAGGSLRLSCAASGSILGGYAMGWYLQAPGKESELVAAITSSGGRTYYADCVKGRFTMSRDNAKNTVYLQMNSLKPEDTAVYYCAARYSRWRYNYKDYAYWGQGTQVTVSS” the “polyreactivity (PSR sort gate)” value was “high polyreactivity”. For “QVQLVESVGGLVKAGGSLRLSCAASGSTFRYYSMGWYRPAPGKERELVAGITTGGGRTYYADSVKGRFTISRDNAMNTVYLQMNSLKPEDTAVYSCAADRYSHYWYRNSYDYWGQGTQVTVSS”, the “polyreactivity (PSR sort gate)” value was “high polyreactivity”. With “QVQLVESVGGLVQAGASLRLSCAASGFTIDRYAMGWYIQAPAKERELVAAISGSGGRTYYADSVKGRFTISRDNAKNTVYLQMNSLKPEVTAVYYCAAVYLVTRGARYDYCGQGTQVTVSS” the “polyreactivity (PSR sort gate)” value was “high polyreactivity”. In the case of “QVQLVESVGGLVQAGASLRLSCAASGSIFGYNPMGWYRQAPGKERELVAVINASGASTYYADSVKGRFTISRDNAKNTVYLQMNSLKPEDTAVYYCAKDPFPFPGGDYWGQGTQVTVSS”, the “polyreactivity (PSR sort gate)” value is reported as “low polyreactivity”. In the case of “QVQLVESVGGLVQAGASLRLSCAASGSTFDYYAMGSYRQAPGKERELVAAISRTGGRTYYADSVKGRFTISRDNAKNTVYLQMNSLKPEDTAVYYCNAVTRIGGGDYDYWGQGTQVTVSS”, the “polyreactivity (PSR sort gate)” value is reported as “low polyreactivity”. In the case of “QVQLVESVGGLVQAGCSLRLSCAASGSIIRTNTMGWYRQAPGKEREFVAAISRSGGSTYYADSVKGRFTISRDNAKNTVYLQMNSLKPEDTAGYYCNARWGLGSYGYWGQGTQVTVSS”, the “polyreactivity (PSR sort gate)” value is reported as “high polyreactivity”. In the case of “QVQLVESVGGLVQAGDSLPLSCAPSAYIFRAYAMGWFRQAPGKASELVAAISSRGGSTYYADSVKGRFTISRDNATQTVYLQMNSLKPEDTAVYYCAAAYRQPYIGYGYWGQGTQVTVTS”, the “polyreactivity (PSR sort gate)” value is reported as “high polyreactivity”. In the case of “QVQLVESVGGLVQAGGILRLSCAASGSIFRSYAMGWYRQAPGKERELVAAIRSDGRTNYADSLKGRFTISRDNAKNTVYFPMNRLKPEDTAVYYCAAKAYYSYWRSMDYWGQGTQVTVSS”, the “polyreactivity (PSR sort gate)” value is reported as “low polyreactivity”. With “QVQLVESVGGLVQAGGRLRLSCDASGFIFANYAMGWYRQATGKERELVAAITSGTGTNYADSVKGRFTISRDNAKNTVYLQMNSLKPEDTAVYYCAAYYTWLSEFGYWGQGTQVTVSS” the “polyreactivity (PSR sort gate)” value was “low polyreactivity”. With “QVQLVESVGGLVQAGGSLLLSCAASGGIFWVYALGWYRQAPGKVRELVAAISYDTTSTYYADSVKGRFTISRDNAKNTVYLQMNRLKPEDTAVYYCNKTTLLTVEYDYGGQGTQVTVSS” the “polyreactivity (PSR sort gate)” value was “low polyreactivity”. With “QVQLVESVGGLVQAGGSLPLSCAASGFTFSDYAMGWYRQAPGKESELVAGISSGGYTNYADSVKGRFTISRDNAKNTVYLQMNSLKPEDTAVYYCAAAYYSKFGYWGKGTQVTVSS” the “polyreactivity (PSR sort gate)” value was “high polyreactivity”. For “QVQLVESVGGLVQAGGSLRISSAASGRTFERNTKGWYRQAPGKERELVAAITYDGGSTYYADSVKGRFTISRDNAKKTVYLKMNSLKPEDTAFYYCNAGGYEIYRSPFDYWGQGSQVTVSS”, the “polyreactivity (PSR sort gate)” value was “low polyreactivity”. In the case of “QVQLVESVGGLVQAGGSLRLICAASGRTFRGYAMGWYRQAPGKERELVAAISSSGGRTYYADSVKGRFTISRDNAKNTVYLQMNSLKPEDTAVYYCAAAVTLSPAQYGYWGQGTQVTVSS”, the “polyreactivity (PSR sort gate)” value is reported as “high polyreactivity”. With “QVQLVESVGGLVQAGGSLRLICAASGYTFSRNAMGWYRPAPGKERELVAVISSGGSTYYADSVKGRFTISRDNAKNTVYLQMNSLKPEDTAVYYCNTGVYRYGYWYDYWGQGTQVTVSS” the “polyreactivity (PSR sort gate)” value was “high polyreactivity”. In the case of “QVQLVESVGGLVQAGGSLRLRCAASGRTFGVYAMGWYRQAAGKESEFVATITSRGGRTYSADSVKGRFTISRDNAKKTVYLQMNSLIPEDTAVYYCAAQVGRNGVSEYDYWGQGTQVTVSS”, the “polyreactivity (PSR sort gate)” value is reported as “high polyreactivity”. In the case of “QVQLVESVGGLVQAGGSLRLSCAASGFIFGYNAMGWYRQAPGKERELVAAITSRGDRTYYADSVKGRFTISRDNAKNTVYLQMNSLKPEDTAVYYCAKATRGYRSPYCSIGYYYWGQGTQLTVSS”, the “polyreactivity (PSR sort gate)” value is reported as “high polyreactivity”. For “QVQLVESVGGLVQAGGSLRLSCAASGFIFKGNAMGWYRQAPGKERELVAAITNRGGGTYYADSVKGRFTISRDNAKNTVYLQMNSLKPEDTAVYYCAKAYTRPFHPYDYWGQGTQVTVSS”, the “polyreactivity (PSR sort gate)” value was “high polyreactivity”. In the case of “QVQLVESVGGLVQAGGSLRLSCAASGFIFNWYAMGWYRQAPGKERELVAAITSGGSTNYADSVKGRFTISRDNAKNTVYLQMNSLKPEDTAVYYCAARDWRRYGYWGQGTQVTVSS”, the “polyreactivity (PSR sort gate)” value is reported as “high polyreactivity”. For “QVQLVESVGGLVQAGGSLRLSCAASGFIFSQYAMGWDRKAPGKERELVAAISKSGGRTYYADSVKGRFTFSRDNAKNTVYLQMNSLKPEDTAVYYCAAVSYSSYRYDYWGQGTQVTVSS”, the “polyreactivity (PSR sort gate)” value was “high polyreactivity”. In the case of “QVQLVESVGGLVQAGGSLRLSCAASGFIFYGYAMGWYRQAPGKERELVAAISRSGTSTYYADSVKGRFTISRDNAKNTVYLQMNSLKPEDTAVYYCAADYVGWKWGSRGAIYKHYYWGQGTQVTVSS”, the “polyreactivity (PSR sort gate)” value is reported as “high polyreactivity”. With “QVQLVESVGGLVQAGGSLRLSCAASGFIFYSNAMGWYRKAPGKERELVAAISRSGGSTYYADSVKGRFTISRDNAKNTVYLQMNSLKPEDTAVYYCNVYCYDWWGYDYWGQGTQVTVSS” the “polyreactivity (PSR sort gate)” value was “high polyreactivity”. With “QVQLVESVGGLVQAGGSLRLSCAASGFIFYYNTMGWYRQAPGKERELVAAISSGGRTYYADSVKGRFTISRDNAKNTVYLQMNSLKPEYTAVYYCNVVTYVKYGYWGQGTQVTVSS” the “polyreactivity (PSR sort gate)” value was “high polyreactivity”. In the case of “QVQLVESVGGLVQAGGSLRLSCAASGFNFDYYTMGWYRQAPGKEREFVAAINRRGDITYYADSVKGRFTISRDNAKNTVYLQMNSLKPEDTAVYYCAANLTCSSRYEYGYWGQGTQVTVSS”, the “polyreactivity (PSR sort gate)” value is reported as “low polyreactivity”. For “QVQLVESVGGLVQAGGSLRLSCAASGFNFPGYAMGWYRPAPGKERELVAAITGSGGRTYYADSVKGRFTISRDNAKNTVYLQMISLKPEDTAVYYCLARSYYNWYDYWGKGTQVTVSS”, the “polyreactivity (PSR sort gate)” value was “high polyreactivity”. In the case of “QVQLVESVGGLVQAGGSLRLSCAASGFNFSAYAMGGYRQAPGKESELVAAISWSGSRTYYADSVKGRFTISRDNAKNTVYLQMNSLKPEDTAVFYCAKEPYDTFGFYEYDYWGQGTQVTVSS”, the “polyreactivity (PSR sort gate)” value is reported as “low polyreactivity”. With “QVQLVESVGGLVQAGGSLRLSCAASGFTFANYAMGWYRQAPGKERELVAAITWSGGRTYYADSVKGRFTISRDNAKNTVYLQMNSLKQEYTAVYYCAAGLGTLYGYWGQGTQVTVSS” the “polyreactivity (PSR sort gate)” value was “high polyreactivity”. In the case of “QVQLVESVGGLVQAGGSLRLSCAASGFTFLWYAMGWYRQAPGKEWELVAAINSSGVRTYYADSVKGRFTISRDNAKNTVYLLMNSLKPEDTAVYYCAAYQKTYTEDEYWGQGTQVTVSS”, the “polyreactivity (PSR sort gate)” value is reported as “high polyreactivity”. For “QVQLVESVGGLVQAGGSLRLSCAASGFTFTYNAMGWYRQAPGKERELVAAISRNGGRTYYADSVKGRFTISRDNAKNTVYLQMNSLKPEDTAVYYCNAVYYYYYWRVSIYDYWGQGTQVTVSS”, the “polyreactivity (PSR sort gate)” value was “high polyreactivity”. In the case of “QVQLVESVGGLVQAGGSLRLSCAASGFTFWIYAMGWYRQAPGKERELVAVISRGGSTYYADSVKGRFTISRDNAKNTVYLQMNSLKPEDTAVYYCAAYWRSRNRFYWGQGTQVTVSS”, the “polyreactivity (PSR sort gate)” value is reported as “high polyreactivity”.
